{"source": "patent US20240209044", "key": {"[1]": {"test_system": "ZAP, zeta activating peptide, the PKCzeta uORF-encoded peptide"}, "[2]": {"test_system": "T1, ZIP, zeta inhibitory peptide, the pseudo-substrate peptide of the PKCzeta regulatory domain", "T1 sequence": "SIYRRGARRWRKL"}}, "data": [{"substance": "PKMzeta, truncated version of PKCzeta containing only the kinase domain", "values": [{"measurement": "kinase activity (phosphorylation of MBP, 32P-γ-ATP in vitro kinase assay, dose series of peptide)", "setting": "[1]", "result": "the ZAP peptide activates the kinase activity of both PKCzeta and PKMzeta"}, {"measurement": "kinase activity (phosphorylation of MBP, 32P-γ-ATP in vitro kinase assay, dose series of peptide)", "setting": "[2]", "result": "the known PS ZIP peptide inhibits their activity"}]}, {"substance": "PKCgamma, HA-tagged, immunoprecipitated from HEK293T lysate", "values": [{"measurement": "phosphorylation of MBP by PKC isoforms (32P-γATP in vitro kinase assay)", "setting": "[1]", "result": "the peptide had no effect on the phosphorylation of MBP by the PKC isoforms PKCeta (PKCη), PKCtheta (PKCθ), PKCgamma (PKCγ), and PKCalpha (PKCα)"}]}, {"substance": "PKCdelta, HA-tagged, immunoprecipitated from HEK293T lysate", "values": [{"measurement": "phosphorylation of MBP by PKC isoforms (32P-γATP in vitro kinase assay)", "setting": "[1]", "result": "enhanced the phosphorylation of PKC isoforms of the novel PKC sub-family of PKCzeta, PKCdelta and PKCepsilon"}]}]}
